Experimental data as given in article PMC4634812, “Characterization of proliferating cell nuclear antigen (PCNA) from pathogenic yeast Candida albicans and its functional analyses in S. Cerevisiae” (BMC Microbiology, 2015).

T1: Yeast DNA polymerase eta (ScPolη) (S. cerevisiae, UniProt Q04049 1-632)
T1 construct: DNA polymerase eta (Rad30) of S. cerevisiae; also called Rad30; ScRAD30; source: S. cerevisiae YRP654 (protease deficient), GAL-PGK-GST-ScRAD30 construct, purified by the same protocol as PCNA
T1 sequence (looked up): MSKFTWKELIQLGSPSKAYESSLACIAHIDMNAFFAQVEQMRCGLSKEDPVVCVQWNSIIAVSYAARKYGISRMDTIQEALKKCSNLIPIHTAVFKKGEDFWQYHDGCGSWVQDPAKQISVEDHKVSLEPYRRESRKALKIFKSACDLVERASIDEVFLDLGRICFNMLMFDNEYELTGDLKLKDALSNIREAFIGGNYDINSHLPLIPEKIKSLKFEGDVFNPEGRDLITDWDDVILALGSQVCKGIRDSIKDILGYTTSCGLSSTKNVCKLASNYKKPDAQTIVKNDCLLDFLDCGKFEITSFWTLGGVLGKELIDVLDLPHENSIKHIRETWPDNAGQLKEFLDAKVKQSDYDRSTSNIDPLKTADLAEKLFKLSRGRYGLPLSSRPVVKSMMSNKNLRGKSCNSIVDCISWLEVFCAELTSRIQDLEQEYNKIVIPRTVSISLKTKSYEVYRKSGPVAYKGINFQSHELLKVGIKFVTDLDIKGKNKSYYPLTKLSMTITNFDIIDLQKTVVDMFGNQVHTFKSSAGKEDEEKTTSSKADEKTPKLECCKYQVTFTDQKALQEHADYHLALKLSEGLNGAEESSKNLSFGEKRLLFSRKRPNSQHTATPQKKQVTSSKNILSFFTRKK

B1: Candida albicans proliferating cell nuclear antigen (CaPCNA), wild type (natural protein, Candida albicans SC5314, UniProt Q5AMN0 1-259, looked up)
chain: MLEGKFEEAALLKKVVEAIKDCVKKCNFNCSEHGITVQAVDDSRVLLVSLLIGQTSFSEYRCDRDVTLGIDLESFSKIIKSANNEDFLTLLAEDSPDQIMAILEEKQKEKISEYSLKLMDIDSEFLQIDDMEYDAVVNMPSSDFAKLVRDLKNLSESLRVVVTKDSVKFTSEGDSGSGSVILKPYTNLKNERESVTISLDDPVDLTFGLKYLNDIVKAATLSDVITIKLADKTPALFEFKMQSGGYLRFYLAPKFDDDE
notes: PCNA (POL30) of Candida albicans SC5314, orf19.4616 of the Candida Genome Database, 259 amino acids; the orf was amplified from genomic DNA with primers from the start to the stop codon; A few residues of the Prescission site and the cloning site may remain at the N-terminus after cleavage; also called orf19.4616; CaO19.12086; source: E. coli BL21-DE3, purified (glutathione beads, eluted by …)
B2: Saccharomyces cerevisiae PCNA (ScPCNA), wild type (natural protein, S. cerevisiae)
chain: MLEAKFEEASLFKRIIDGFKDCVQLVNFQCKEDGIIAQAVDDSRVLLVSLEIGVEAFQEYRCDHPVTLGMDLTSLSKILRCGNNTDTLTLIADNTPDSIILLFEDTKKDRIAEYSLKLMDIDADFLKIEELQYDSTLSLPSSEFSKIVRDLSQLSDSINIMITKETIKFVADGDIGSGSVIIKPFVDMEHPETSIKLEMDQPVDLTFGAKYLLDIIKGSSLSDRVGIRLSSEAPALFQFDLKSGFLQFFLAPKFNDEE
notes: PCNA (POL30) of S. cerevisiae; The cloning of the bacterial ScPCNA construct is not described; also called yeast PCNA; ScPol30; source: E. coli BL21-DE3, purified (glutathione beads, eluted by Prescission protease)

Tests used:
[1] = molecular target: Candida albicans PCNA G178S mutant (Candida albicans SC5314) (UniProt Q5AMN0); experiment: cross-linking; about 20 μg protein in 20 mM HEPES pH 7.5 with glutaraldehyde, 5 min at 37 °C, then 12 % SDS-PAGE
[2] = molecular target: the molecule itself; experiment: native gel or EMSA; 12 % non-denaturing polyacrylamide gel, ~1 μg of each purified protein, Coomassie stain
[3] = molecular target: the molecule itself; experiment: cross-linking; about 20 μg protein in 20 mM HEPES pH 7.5 with glutaraldehyde, 5 min at 37 °C, then 12 % SDS-PAGE
[4] = molecular target: T1, Yeast DNA polymerase eta (ScPolη); experiment: SPR; details: both partners purified
[5] = molecular target: T1, Yeast DNA polymerase eta (ScPolη); experiment: SPR; Bio-Rad XPR 36; CaPCNA, ScPCNA or BSA (~350 RU) amine-coupled on a GLC chip; ScPolη injected at 25-500nM; 25 mM HEPES pH 7.5, 10 % glycerol, 200 mM sodium acetate, 8 mM magnesium acetate, 1 mM DTT, 0.005 % Tween-20, 0.2 mg/ml BSA; 20 °C; 1:1 Langmuir fit; details: both partners purified

| Molecule | stoichiometry N [1] | stoichiometry N [2] | stoichiometry N [3] | Kd [4] | koff [4] | Kd [5] | koff [5] |
| --- | --- | --- | --- | --- | --- | --- | --- |
| Candida albicans PCNA G178S mutant (from UniProt Q5AMN0 1-259) (natural protein) | 2 |  |  |  |  |  |  |
| B1 |  | 3 | 6 | 10.6 nM | 0.000166 s⁻¹ |  |  |
| B2 |  | 3 |  |  |  | 80.1 nM | 0.00138 s⁻¹ |
